According to the nanobody polyreactivity screen of Harvey et al. (2022):

assay: yeast display, Sf9 membrane polyspecificity reagent, FACS + sequencing; frameworks hold sequencing errors
How it was run: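 A synthetic nanobody library was expressed on Saccharomyces cerevisiae BJ5465 by galactose induction for 36–48 hours. The library was stained for 1 hour at 4 °C with 10% biotinylated, detergent-solubilized Sf9 membrane reagent and enriched with streptavidin microbeads before FACS. Low and high (top ~1%) gates were set on anti-HA fluorescence for expression and streptavidin fluorescence for reagent binding, and each polyreactivity label reflects the gate of origin.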

Sequence	polyreactivity (PSR sort gate)
QVQLVESGGGLVQAGGSLRLSCAASGFTLYRYAMAWYRQAPGKERELVAAISWSGGSTYYADSVKGRFTISRDNAKNTVYLQMNSLKPEDTAVYYCAATGYVTRSKRYDYWGQGTQVTVSS	high polyreactivity
QVQLVESGGGLVQAGGSLRLSCAASGFTLYYSAMGWYRQAPGKERELVAAISYSGGSTYYADSVKGRFTISRDYAKNTVYLHMYSLKPEDTAVSYCAVQFSYGFTGGPIYDYWGQGTQVTVSS	low polyreactivity
QVQLVESGGGLVQAGGSLRLSCAASGFTLYYYMGWYRQAPGKERELVARIRATGGSTYYADSVKGRFTISRDNAKNTVDLQMNSLKPEDTAVYYCAAKGVPRRYRPDMYYWGQGTQVTVSS	high polyreactivity
QVQLVESGGGLVQAGGSLRLSCAASGFTNAMGWYRQAPGKERELVAAISYSGDSTNYADSVKGRFTISRDNAKNTVYLQINSVKPEDTAVYYCNASSPYDYDWGQGTHVTVSS	low polyreactivity
QVQLVESGGGLVQAGGSLRLSCAASGFTNLNSMGRYRQAPGKERELVADISASGGTTYYADSVKGRFTISLDNAKNTVYLQMNSLKPEDTAVYYCAARRYYPRWYYWIRFDYWGQGTQVTVSS	high polyreactivity
QVQLVESGGGLVQAGGSLRLSCAASGFTNSMGWYRQAPGKERELVAAISYSGDSTNYADSVKGRFTISRDNAKNTVYLQMNSLKPQDTAVYYCNASSPYDYDWGQGTQVTVSS	low polyreactivity
QVQLVESGGGLVQAGGSLRLSCAASGFTPGNVMGWYRQAPGKERELVAAISWSGDSTYYADSVKGRFTISRDNAKNTVYLQMNSLKPEDTAVYYCAADGVPGRAVDYEYWGQGTQVTVSS	high polyreactivity
QVQLVESGGGLVQAGGSLRLSCAASGFTSGNYAMGWYRQAPGKEREFVAAITWGDGSTFYADSVKGRFTISRDNAKNTVYLQMNSLKPEDTAVYYCAADYSRTYRAYDYWGQGTQVTVSS	low polyreactivity
QVQLVESGGGLVQAGGSLRLSCAASGFTSGYNLMGWYRQAPGKERELVAAISWRGTSTYYADSVKGRFTISRDNAKNTVYLQMNSLKPEDTAVYYCAARQRWYWRGYDYWGQGTQVTVSS	high polyreactivity
QVQLVESGGGLVQAGGSLRLSCAASGFTSGYYAMGWYRQAPGKERELVAAISFSGDDTYYADSVKGRFTISRDNAKNTVYLQMNCLKPEVTAVYYCAAEYDLYFLDQGYWYVAFDYWGQGTQVTVSS	high polyreactivity
QVQLVESGGGLVQAGGSLRLSCAASGFTSGYYAMGWYRQAPGKESELVAAIDWSDGGTYYADSVKGRFTISRDNAKNTVYLQMNSLKPEDTAVYYCATVRYVQITRDDYWGQGTQVTVSS	low polyreactivity
QVQLVESGGGLVQAGGSLRLSCAASGFTSKTNAMGWYRQAPGKERELVAGITRTGGSTYYADSVKGRFTISRDNAKNTVYLQMNSLKPEDTAVYYCAREYGDGYEYWGQGTQVTVSS	low polyreactivity
QVQLVESGGGLVQAGGSLRLSCAASGFTSRKNAMGWYRQAPGKERELVAAITQSSGRTYYADSVKGRFTISRDNAKNTVYLQMNSLKPEDTAVYYCAARRGGEDDYWGQGTQGTVSS	low polyreactivity
QVQLVESGGGLVQAGGSLRLSCAASGFTSSAYAMGWYRQEPGKESELVAVISRSGGRTYYADSVKGRFTISRDNAKNTVYLQMNSLKPEDTADYYCAAEYGVYNIHFPGYDYWGQGTQVTVSS	high polyreactivity
QVQLVESGGGLVQAGGSLRLSCAASGFTSWQYAMGWYRQAPGKERELVAAISVSGASTYYADSVKGRFTISRDNAKNTVYLQMNSLKPEDTAVYYCAAAYVRYPTTRYYYWGQGTQVTVSS	high polyreactivity
QVQLVESGGGLVQAGGSLRLSCAASGFTSYRYAMGWYRQAPGKERELVAAISSSGRTDYADSVKGRFTISRDNAKNSVYLQMNSLKPEDTAVYYCAARTYSYVGRYKFDYWGQGTQVTVSS	high polyreactivity
QVQLVESGGGLVQAGGSLRLSCAASGFTVEKNAMGWYRPAPGNERELVAAITKSGGSTYYADSVKGRFTISRDNAKNTVYLQMNSLKPEDTAVYFCNAPPWSRYYYDLLRHDYWGQGTQVTVSS	low polyreactivity
QVQLVESGGGLVQAGGSLRLSCAASGFTVYGYTMGWYREAPGKERELVAAITSGDSTYYADSVKGRVTISRDIAQNTDYLQMHTLKPEETAVYYCATDWDVEYAWTEYYYWGQGTQVTVSS	high polyreactivity
QVQLVESGGGLVQAGGSLRLSCAASGFTWSYAMGWYRQAPGKERELVATISDGVSTNYADSVKGRFTISRDNAKNTVYLQMNSLKPEDTAVYYCAARYTSWGMGYWGQGTQVTVSS	low polyreactivity
QVQLVESGGGLVQAGGSLRLSCAASGFTYIFYAMGWYRQAPGKERELVAAITWDGDRTYYADSVKGRFTISRDNAKNTVYLQMNSLKPEDTAVYYCNADEGGNYREDYWGQGTQVTVSS	low polyreactivity
QVQLVESGGGLVQAGGSLRLSCAASGFTYRSYTMGWYRQAPGKERELVAAITSRGTSTYYADSVKGRFTISRDNAKNTVYLQMNSLKPEDTALYYCNAARPGKNYDSWGQGTQVTVSS	high polyreactivity
QVQLVESGGGLVQAGGSLRLSCAASGFTYSFYTMGWSRQAPGKERELVAAISRNGGSTYYADSVKGRFTISRDNAKNTVYLQMNSLKPEDTAVYYCAARARGGDWGSGDYWGQGTQVTVSS	high polyreactivity

Sequence	polyreactivity (PSR sort gate)
QVQLVESGGGLVQAGGSLRLSCAASGFTYTYAMGWYIQAPGKERELVAAISKSGGRTYYADSVKGRFTISRDNAKNTVYLQMNSLKPEDTAVYYCAADYSSTYDYWGQGTQVTVSS	high polyreactivity
QVQLVESGGGLVQAGGSLRLSCAASGFTYVVYDMGWYRQAPGKERELLAVITNSGGSTYYADSVKGRFTISRDNAKNTVYLQMYSLKPEDTAVYYCATRTPVWVNTESDYWGQGTQVTVSS	low polyreactivity
QVQLVESGGGLVQAGGSLRLSCAASGFTYYYYAMGWSRQAPGKVRELVAAITYSGGSTYYADSVKGRFTISRDNAKNTVYLLMNSLKPEDTAVYYCNAVVGRWFPFNLSDYWGQGTQVTVSS	low polyreactivity
QVQLVESGGGLVQAGGSLRLSCAASGFVWNAMGWYRQAPGKERELVAAINWRGGSTNYADSVKGRFTISRDNAKNTVYLQMNSLKPEDTAVYYCAAYFFHYHFYQAAYDYWGQGTQVTVSS	low polyreactivity
QVQLVESGGGLVQAGGSLRLSCAASGGICGYYAMGWYRQAPGKERELVAAISWTGGSTYYADSVKGRFTISRDNAKNTVYLQMNSLKPEDTAVYYCAASDSFGYDYWGQGTQVTVSS	high polyreactivity
QVQLVESGGGLVQAGGSLRLSCAASGGIFAHYVMGWYRQAPGKERELVAAISASGGSTYYADSVKGRFTISRDNAKNTVYLQMNSLKPEDTAVYYCAAYYLAWYAYRYKTVGSAMDHWGQGTQVTVSS	low polyreactivity
QVQLVESGGGLVQAGGSLRLSCAASGGIFAPYVMGWYRQAPGKERELVAGITWSGGSTYYADSVKGRFTISRDNAKITVYLQMNSLKPEDTAVYYCAAEWYYSVIWLYEYWGQVTQVTVSS	high polyreactivity
QVQLVESGGGLVQAGGSLRLSCAASGGIFARNAMGWYRQAPGKVRELVAAISWSGGRTYYADSVKGRFTISRDNAKNTDYLQMNSLKPEDTAVYYSAADHDPWWAWEFDYWGQGTQVTVSS	low polyreactivity
QVQLVESGGGLVQAGGSLRLSCAASGGIFDANAMGWYRQAPGKERELVAAISSGGITKYADSVKGRFTISRDNAKNTVYLQMNSLKPEDTAVYYCAASWYRYRFIRYDYWGQGTQVTVSS	high polyreactivity
QVQLVESGGGLVQAGGSLRLSCAASGGIFDRYAMGWKRQAPGKERELVAVISGSVNTYADSVKGRFTISRDNAKNTGYLRMNSLKPEDTAVYYCATQFEGPSGFNYWGQGTQVTVSS	low polyreactivity
QVQLVESGGGLVQAGGSLRLSCAASGGIFDSYALGWYRQAPGKERELVADITSGGSTNYADSVKGRFTISRDNAKNTVYLQMNSLKPEDTAVYYCARTVYGARSYDYWGQGTQVTVSS	low polyreactivity
QVQLVESGGGLVQAGGSLRLSCAASGGIFDTYAMGWYRQAPGKERELVAAISANGGETYYADSVKGRFTISRDNAKTTVYLQMNSLKPEDTAVYYCAADGFLPILHPVPWSYYYPFGYWGQGTQVTVSS	low polyreactivity
QVQLVESGGGLVQAGGSLRLSCAASGGIFDYNAMGWYRQAPGKERELVAAITNGGSTNYADSVKGRFTISRDNAKNSVYLQMNSLKPEDTAVYYCATGYFYDYWGQGTQVTVSS	low polyreactivity
QVQLVESGGGLVQAGGSLRLSCAASGGIFERNDMGWYRQAPGKERELVAGISSVGSTNYADSVKGRFTISRDNAKNTVYLQMNSLKPEDTAVYYCAAGYSRAHDYWGQGTQVTVSS	low polyreactivity
QVQLVESGGGLVQAGGSLRLSCAASGGIFFLYAMGWYRQAPGKERELVAAIRQDGGSTYYADSVKGRFTISRDNAKNTVYLQMNSLKPEDTAVYYCNAGYVKTGLEYYYWGQGTQVTVSS	low polyreactivity
QVQLVESGGGLVQAGGSLRLSCAASGGIFGLYTMGWYRQAPGKERELVAAISKTGGSTYYADSVKGRFTISRDNAKHTVYLQMNSLKPEDTAVYYCAADGPYDDYEYWGQGTQVTVSS	high polyreactivity
QVQLVESGGGLVQAGGSLRLSCAASGGIFGLYTMGWYRQAPGKERELVAGISKRGTRTRYADSVKGRFTISRDNAKNTVYLQMNSLKPEDTAVYYCNADYYVSKLDYWGQGTQVTVSS	high polyreactivity
QVQLVESGGGLVQAGGSLRLSCAASGGIFGRYAMGWYRQAPGKERELVAAISKRGGSTYYADSVKGRFTISRDNAKNTVYLQMNSLKPEDTAVYYCNAKRSLFGRYGYWGQGTQVTVSS	high polyreactivity
QVQLVESGGGLVQAGGSLRLSCAASGGIFGSYAMGWYRQAPGKERELVAAITSGGRTTYADSVKGRFTISRDNAKNTVYLQMNSLKPEDTAVYYCNAGRVFGNYFFRVYYYWGQGTQVTVSS	high polyreactivity
QVQLVESGGGLVQAGGSLRLSCAASGGIFHGNTMGWYRQAPGKERELVAAISNSGGSTYYADSVKGRFTISRDNAKNTVYLQMNSLKPEDTAVYYCARVGYKLYQYKYDYWGQGTQVTVSS	low polyreactivity
QVQLVESGGGLVQAGGSLRLSCAASGGIFKRYAMGWYRQAPGKERELVAAISGRGGGTYYADSVKGRFTISRDNATNTVYLQMTSLKPEDTAVYYCNARLSWSAFGYWGQGTQVTVSS	high polyreactivity
